# Results: patent US20260184782A1 (TWIST BIOSCIENCE, published 2026)
# Molecular target: T1, human TIGIT-Fc (human, UniProt Q495A1 22-141, limits assumed)
# T1 construct: not shown: Fc; not described
# T1 sequence (looked up): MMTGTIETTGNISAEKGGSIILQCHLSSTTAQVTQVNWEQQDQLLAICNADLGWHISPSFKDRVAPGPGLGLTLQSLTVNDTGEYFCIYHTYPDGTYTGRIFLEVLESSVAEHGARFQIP
# Assay: CD155 competition ELISA, single point; note: test concentration or dose not given here
# Protocol: TIGIT/CD155 inhibition of VHH-Fcs were assessed using an ELISA assay (Table 10B). Briefly, human TIGIT-Fc was coated on a plate & then incubated with VHH-Fcs and human CD155-biotin. Bound CD155-biotin was detected using a streptavidin-HRP conjugate visualized with TMB. Strong inhibitors from the single point screen were titrated to determine EC50 (Table 10C).
row,Binder,OD (450 nm) [OD]
1,"TIGIT-SC39 (Fc fusion, VHH-Fc) VHH: EVQLVESGGGLVQPGGSLRLSCAASGRTVSSHAMGWFRQAPGKEREFVAAITSSGSTYYADSVKGRFTISADNSKNTAYLQMNSLKPEDTAVYYCASSYSSSSGLGDIWGQGTLVTVSS",0.652
2,"TIGIT-SC47 (Fc fusion, VHH-Fc) VHH: EVQLVESGGGLVQPGGSLRLSCAASGRALNMYVMGWFRQAPGKERELVAAIDWSGGSALYADSVKGRFTISADNSKNTAYLQMNSLKPEDTAVYYCASGDGYSMDYFDPWGQGTLVTVSS",0.69
3,"TIGIT-SC19 (Fc fusion, VHH-Fc) VHH: EVQLVESGGGLVQPGGSLRLSCAASGRTYDAMGWFRQAPGKEREWVASVLRGGYTWYADSVKGRFTISADNSKNTAYLQMNSLKPEDTAVYYCARDVDYRFDSWGQGTLVTVSS",0.746
4,"TIGIT-SC33 (Fc fusion, VHH-Fc) VHH: EVQLVESGGGLVQPGGSLRLSCAASGFLFDSYAMGWFRQAPGKEREFVAAVSQSGLLTFYADSVKGRFTISADNSKNTAYLQMNSLKPEDTAVYYCASRTSSWWWFDPWGQGTLVTVSS",0.764
5,"TIGIT-SC35 (Fc fusion, VHH-Fc) VHH: EVQLVESGGGLVQPGGSLRLSCAASGFTLENNMMGWFRQAPGKERELVAAISMSGDDTIYADSVKGRFTISADNSKNTAYLQMNSLKPEDTAVYYCARQGDTVMVSGIDYWGQGTLVTVSS",0.42
6,"TIGIT-SC44 (Fc fusion, VHH-Fc) VHH: EVQLVESGGGLVQPGGSLRLSCAASGSIFGLGAMGWFRQAPGKERELVAITWGGSTTLYADSVKGRFTISADNSKNTAYLQMNSLKPEDTAVYYCATDQGQWLFDFWGQGTLVTVSS",0.359
7,"TIGIT-SC32 (Fc fusion, VHH-Fc) VHH: EVQLVESGGGLVQPGGSLRLSCAASGFAFGDSWMGWFRQAPGKERELVAAIDWSGGSALYADSVKGRFTISADNSKNTALQMNSLKPEDTAVYYCAKVHSDFRAGWDVWGQGTLVTVSS",0.86
8,"TIGIT-SC28 (Fc fusion, VHH-Fc) VHH: EVQLVESGGGLVQPGGSLRLSCAASGRTFSTDAMGWFRQAPGKEREFVATINWKDGFTYYADSVKGRFTISADNSKNTAYLQMNSLKPEDTAVYYCAGVGHDYGDYLFDYWGQGTLVTVSS",0.539
9,"TIGIT-SC40 (Fc fusion, VHH-Fc) VHH: EVQLVESGGGLVQPGGSLRLSCAASGFSFDRWAMGWFRQAPGKERELVARISWNGGSTYYADSVKGRFTISADNSKNTAYLQMNSLKPEDTAVYYCARDDGWLQFMHWGQGTLVTVSS",0.613
10,"TIGIT-SC27 (Fc fusion, VHH-Fc) VHH: EVQLVESGGGLVQPGGSLRLSCAASGLTFSNYVMGWFRQAPGKEREVVAGILSDGRELYADSVKGRFTISADNSKNTAYLQMNSLKPEDTAVYYCARDVFGEGHWGQGTLVTVSS",0.505
11,"TIGIT-SC165 (Fc fusion, VHH-Fc) VHH: EVQLVESGGGLVQPGGSLRLSCAASGNTFSGGFMGWFRQAPGKEREWVASVLRGGYTWYADSVKGRFTISADNSKNTAYLQMNSLKPEDTAVYYCTTEGSGWRNWGQGTLVTVSS",0.324
12,"TIGIT-SC164 (Fc fusion, VHH-Fc) VHH: EVQLVESGGGLVQPGGSLRLSCAASGFTFDRSWMGWFRQAPGKEREFVASVLRGGYTWYADSVKGRFTISADNSKNTAYLQMNSLKPEDTAVYYCTTEGSGWRNWGQGTLVTVSS",0.363
13,"TIGIT-SC37 (Fc fusion, VHH-Fc) VHH: EVQLVESGGGLVQPGGSLRLSCAASGNTFSGGFMGWFRQAPGKEREWVASVLRGGYTWYADSVKGRFTISADNSKNTAYLQMNSLKPEDTAVYYCVFGGVWQDVWGQGTLVTVSS",0.341
14,"TIGIT-SC189 (Fc fusion, VHH-Fc) VHH: EVQLVESGGGLVQPGGSLRLSCAASGNTFSGGFMGWFRQAPGKEREWVASVLRGGYTWYADSVKGRFTISADNSKNTAYLQMNSLKPEDTAVYYCVTDVGAPDYWGQGTLVTVSS",0.486
15,"TIGIT-SC17 (Fc fusion, VHH-Fc) VHH: EVQLVESGGGLVQPGGSLRLSCAASGFDFSVSWMGWFRQAPGKEREWVASVLRGGYTWYADSVKGRFTISADNSKNTAYLQMNSLKPEDTAVYYCAREGSWFDYWGQGTLVTVSS",0.553
16,"TIGIT-SC30 (Fc fusion, VHH-Fc) VHH: EVQLVESGGGLVQPGGSLRLSCAASGRSFSSDWIGWFRQAPGKERELVAAIDWSGGSALYADSVKGRFTISADNSKNTAYLQMNSLKPEDTAVYYCARVNWNNVGWFDPWGQGTLVTVSS",0.495

row,Binder,OD (450 nm) [OD]
1,"TIGIT-SC18 (Fc fusion, VHH-Fc) VHH: EVQLVESGGGLVQPGGSLRLSCAASGFSLDYYAMGWFRQAPGKEREVVAIIDTNGDNTLYADSVKGRFTISADNSKNTAYLQMNSLKPEDTAVYYCARGRGYGDYVGAYWGQGTLVTVSS",0.716
2,"TIGIT-SC29 (Fc fusion, VHH-Fc) VHH: EVQLVESGGGLVQPGGSLRLSCAASGFTLENNMMGWFRQAPGKERELVAAIDWSGGSTIYADSVKGRFTISADNSKNTAYLQMNSLKPEDTAVYYCARGHDYGDYIAYWGQGTLVTVSS",0.399
3,"TIGIT-SC43 (Fc fusion, VHH-Fc) VHH: EVQLVESGGGLVQPGGSLRLSCAASGFTFADYAMGWFRQAPGKEREMVAAIGWNSGTTEYADSVKGRFTISADNSKNTAYLQMNSLKPEDTAVYYCARDTNGWFFDFWGQGTLVTVSS",0.64
4,"TIGIT-SC45 (Fc fusion, VHH-Fc) VHH: EVQLVESGGGLVQPGGSLRLSCAASGGTFNAMGWFRQAPGKEREWVASVLRGGYTWYADSVKGRFTISADNSKNTAYLQMNSLKPEDTAVYYCAKDGGSSGTYQNWWGQGTLVTVSS",0.359
5,"TIGIT-SC22 (Fc fusion, VHH-Fc) VHH: EVQLVESGGGLVQPGGSLRLSCAASGFTLENNMMGWFRQAPGKEREMVAAISWSGGSALYADSVKGRFTISADNSKNTAYLQMNSLKPEDTAVYYCARGDGYSYGNFDYWGQGTLVTVSS",0.552
6,"TIGIT-SC20 (Fc fusion, VHH-Fc) VHH: EVQLVESGGGLVQPGGSLRLSCAASGNTFSGGFMGWFRQAPGKEREWVASVLRGGYTWYADSVKGRFTISADNSKNTAYLQMNSLKPEDTAVYYCATPRGYWGQGTLVTVSS",0.726
7,"TIGIT-SC173 (Fc fusion, VHH-Fc) VHH: EVQLVESGGGLVQPGGSLRLSCAASGFTFSPSWMGWFRQAPGKEREWVASVLRGGYTWYADSVKGRFTISADNSKNTAYLQMNSLKPEDTAVYYCATERRLGVWGQGTLVTVSS",0.578
8,"TIGIT-SC203 (Fc fusion, VHH-Fc) VHH: EVQLVESGGGLVQPGGSLRLSCAASGFTFSPSWMGWFRQAPGKEREWVASVLRGGYTWYADSVKGRFTISADNSKNTAYLQMNSLKPEDTAVYYCARDRGGSDWGQGTLVTVSS",0.521
9,"TIGIT-SC201 (Fc fusion, VHH-Fc) VHH: EVQLVESGGGLVQPGGSLRLSCAASGFTFSPSWMGWFRQAPGKEREWVASVLRGGYTWYADSVKGRFTISADNSKNTAYLQMNSLKPEDTAVYYCTRDGGFDPWGQGTLVTVSS",0.509
10,TIGIT-SC195 (Fc fusion) VHH: EVQLVESGGGLVQPGGSLRLSCAASGFAFSSDWMGWFRQAPGKEREWVASVLRGGYTWYADSVKGRFTISADNSKNTAYLQMNSLKPEDTAVYYCARGEGFDYWGQGTLVTVSS,0.426
11,"TIGIT-SC42 (Fc fusion, VHH-Fc) VHH: EVQLVESGGGLVQPGGSLRLSCAASGNTFSGGFMGWFRQAPGKEREWVATVLRGGYTWYADSVKGRFTISADNSKNTAYLQMNSLKPEDTAVYYCASGGFLASWGQGTLVTVSS",0.341
12,"TIGIT-SC25 (Fc fusion, VHH-Fc) VHH: EVQLVESGGGLVQPGGSLRLSCAASGNTFSGGFMGWFRQAPGKEREWVASVLRGGYTWYADSVKGRFTISADNSKNTAYLQMNSLKPEDTAVYYCTTVGYGDYWGQGTLVTVSS",0.469
13,"TIGIT-SC191 (Fc fusion, VHH-Fc) VHH: EVQLVESGGGLVQPGGSLRLSCAASGFVFSSDWMGWFRQAPGKEREWVASVLRGGYTWYADSVKGRFTISADNSKNTAYLQMNSLKPEDTAVYYCARGDSMDVWGQGTLVTVSS",0.49
14,"TIGIT-SC171 (Fc fusion, VHH-Fc) VHH: EVQLVESGGGLVQPGGSLRLSCAASGFTFDRSWMGWFRQAPGKEREWVASVLRGGYTWYADSVKGRFTISADNSKNTAYLQMNSLKPEDTAVYYCATERRLGVWGQGTLVTVSS",0.571
15,"TIGIT-SC198 (Fc fusion, VHH-Fc) VHH: EVQLVESGGGLVQPGGSLRLSCAASGFTFSPSWMGWFRQAPGKEREYVASVLRGGYTWYADSVKGRFTISADNSKNTAYLQMNSLKPEDTAVYYCASEGDPDYWGQGTLVTVSS",0.514
16,"TIGIT-SC34 (Fc fusion, VHH-Fc) VHH: EVQLVESGGGLVQPGGSLRLSCAASGTTFSPYTMGWFRQAPGKEREFVASINSGSRTNYADSVKGRFTISADNSKNTAYLQMNSLKPEDTAVYYCVRSEIGWGQGTLVTVSS",0.4
